T1: human IL-33 (R&D Systems, #3625-IL-010/CF) (human, UniProt O95760 112-270)
T1 construct: Commercial recombinant protein; also called hIL-33; interleukin-33
T1 sequence (looked up): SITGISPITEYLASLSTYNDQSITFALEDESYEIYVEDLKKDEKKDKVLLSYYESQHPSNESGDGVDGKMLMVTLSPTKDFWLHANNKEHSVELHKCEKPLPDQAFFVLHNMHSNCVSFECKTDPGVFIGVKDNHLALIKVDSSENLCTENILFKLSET


Legend:
[1] = biological target: T1, human IL-33 (R&D Systems, …); experiment: SPR 25C pH7.4, mAb captured; lower limit, kd fixed
Method: (§1) Equilibrium dissociation constants (KD values) for IL-33 binding to purified anti-IL-33 monoclonal antibodies were determined using a real-time surface plasmon resonance biosensor using a Biacore 4000 instrument. The Biacore sensor surface was first derivatized by amine coupling with either a polyclonal rabbit anti-mouse antibody (GE, # BR-1008-38) or with a monoclonal mouse anti-human Fc antibody (GE, # BR-1008-39) to capture anti-IL-33 monoclonal antibodies expressed with mouse or with human IgG4 constant regions, respectively. All Biacore binding studies were performed in 0.01M ADA pH 7.4, 0.15M NaCl, 3 mM EDTA, and 0.05% v/v Surfactant Tween-20 (ABS-ET running buffer). […] Association of either hIL-33 or MfIL-33-6His to the captured monoclonal antibody was monitored for 4 minutes and their dissociation in ABS-ET running buffer was monitored for 10 minutes. […] To achieve this, association of either hIL-33 or MfIL-33-6His to the captured monoclonal antibody was monitored for 4 minutes in ABS-ET running buffer. Following a 30 second dissociation of either hIL-33 or MfIL-33-6His in ABS-ET running buffer, ABS-ET pH6 buffer was injected for 3 minutes, and the analyte dissociation under the low-pH conditions was measured. […] Binding dissociation equilibrium constants (KD) and dissociative half-lives (t½) were calculated from the kinetic rate constants as: […]

[2] = biological target: T1, human IL-33 (R&D Systems, …); experiment: SPR 25C pH7.4, mAb captured; upper limit, kd fixed
Method: as §1

[3] = biological target: T1, human IL-33 (R&D Systems, …); experiment: SPR 25C pH7.4, mAb captured; no dissociation seen, kd fixed
Method: as §1

[4] = biological target: T2, pre-formed complex of hIL-33 and captured hST2-MMH (human, UniProt O95760 112-270); experiment: SPR Biacore T-200, 25C
T2 construct: Ligand-receptor complex on the sensor: hST2-MMH captured by anti-myc mAb and saturated with 100 nM hIL-33; also called hIL-33 pre-complexed with hST2-MMH
Method: The ability of anti-IL-33 antibodies to bind to a pre-formed complex of IL-33 with ST2 was tested using Biacore T-200 instrument equipped with a real-time surface plasmon resonance biosensor. The experiment was performed at 25° C. with a running buffer composed of 0.01M HEPES pH 7.4, 0.15M NaCl, 3 mM EDTA, and 0.05% v/v Surfactant Tween-20 (HBS-ET). […] The captured hST2-MMH surface was then saturated by injecting 100 nM of human IL-33 (hIL-33; R&D Systems, #3625-IL-010/CF) for 3 minutes followed by a 3 minute injection of a 100 nM solution of the anti-IL-33 monoclonal antibody. The real-time binding response was monitored during the entire course of the experiment, and the observed binding response at 3 minutes after injection of anti-IL-33 antibody to the pre-formed complex of hIL-33 and captured hST2-MMH was recorded and tabulated and shown in Table 7. No non-specific binding of anti-IL-33 monoclonal antibody to the anti-myc tag capture surface was observed.

t½ [1] [h] | Kd [2] [nM] | koff [3] [s⁻¹] | binding result [4] | Binder
≥ 19.2 | ≤ 0.0788 | ≤ 1e-05 |  | H1M9566N (antibody, mouse IgG1, V domains shown, Human variable domains, mouse IgG1 Fc (H1M)) VH: EVQLLESGGDLVQPGGSLRLSCAASGFTFSSYAMSWVRQAPGKGLEWVSVISGSGSSTDYADSVKGRFTISRDNSRDTLHLQMNSLRAEDTAVYYCAKTFYYFYGLDVWGQGTTVTVSS VL: DIQMTQSPSSLSASLRDRVTITCRASQGISNYLAWYQQKPGKVPKVLIYAASTLQSGVPSRFSGSGSGTVFTLTISSLQTEDVATYYCQKYSSAPFTFGPGTKVDIK
 |  |  | no binding (tested: 100 nM) | H4H9662P (antibody, V domains shown, Human IgG4 Fc (H4H)) VH: EVQLVESGGGLVQPGGSLRLSCAASGFTFSSYALTWVRQAPGKGLEWVSFISGSGGRPFYADSVKGRFTISRDNSKNMLYLQMNSLRAEDTAIYYCAKSLYTTSWYGGFDSWGQGTLVTVSS VL: DIQMTQSPSSVSASVGDRVTITCRASQGVVSWLAWYQQKPGKAPKLLIYAASSLQSGVPSRFSGSGSGTDFTLTISSLQPEDFATYYCQQSNSFPFTLGPGTKVDIK
 |  |  | no binding (tested: 100 nM) | H4H9665P (antibody, human IgG4, V domains shown, Human IgG4 Fc (H4H)) VH: EVQLVESGGGLVQPGGSLRLSCAASGFTFSNYAMTWVRQAPGKGLEWVSTISGSGDNTYYADSVQGRFTISRGHSKNTLYLQMNSLRAEDTAVYYCAKPTYSRSWYGAFDFWGQGTMVTVSS VL: DIQMTQSPSSVSASVGDRVTITCRASQGISSWLAWYQQKPGKAPQLLIYAASRLQSGVPSRFWGSGSGTDFTLTISSLQPEDFATYYCQQANNFPFTFGPGTKVDIK

— patent US20160362487A1 (Regeneron, published 2016)
